Ends that are not written are not given here.
Legend:
HT1080 cells = experiment: CACE single-cell analysis: loading and release of cargo; type: cell-based, human
PKB [1] = molecular target: T1, PKB (Rattus norvegicus, UniProt P47196); experiment: CACE: intracellular phosphorylation of PKB substrate in RBL cells; type: cell-based; details: 750 nM extracellular
T1 construct: endogenous in cells; host or cells: RBL-2H3 rat basophilic leukemia cells, with or without PIP3-histone
Method: To determine whether the F-PKB-C delivered to cells by addition of F-PKB-C-SS-TAT (SEQ ID NO:16) at a 750 nM extracellular concentration could also be phosphorylated after pharmacologic activation of PKB (rather than constitutively active PKB), PIP3-histone was added to RBL cells. […] The CACE was used to analyze the amount of phosphorylated F-PKB-C in the presence (15 μM) and absence of PIP3-histone added for 10 min to RBL cells loaded with F-PKB-C-SS-TAT (FIG. 6C,D).
(§1) CACE has been previously described (Sims, Meredith et al. 1998; Meredith, Sims et al. 2000; Li, Wu et al. 2001). Briefly, cells were placed on an inverted fluorescence microscope stage (Diaphot 300, Nikon, Japan) and maintained at 37° C. with an objective heater (Bioptechs; Butler, Pa.) prior to lysis unless stated otherwise. The cells were continually washed with ECB maintained at 37° C. (unless otherwise indicated) with a flow rate of 1 ml/min and a total chamber volume of 0.5 ml. […] Cells were always maintained in ECB when analyzed by the CACE.
(§2) CE was performed as described (Sims, Meredith et al. 1998), with the following modifications. […] The loaded volume was calculated from Poiseulle's equation and from contributions by spontaneous fluid displacement and diffusion (Weinberger, 2000; Fishman, 1994; Crank, 1989). […] Analytes were detected by laser-induced fluorescence (Sims, Meredith et al. 1998). […]

PKB [2] = molecular target: T2, PKB (Homo sapiens, UniProt P31749); experiment: CACE: intracellular phosphorylation of PKB substrate in HT1080 cells; type: cell-based; details: cells with only two peaks
T2 construct: endogenous in cells; host or cells: HT1080 cells; HT1080/PTEN cells (engineered to over-express wild type PTEN, PKB itself not transfected)
From the text: Since the properties of F-PKB (SEQ ID NO:17) microinjected into HT1080 cells have been well characterized, experiments were undertaken to compare the fate of F-PKB-C loaded as F-PKB-C-SS-TAT (SEQ ID NO:16) into HT1080 cells to that of the microinjected F-PKB (SEQ ID NO:17). When microinjected, the percentage of phosphorylated F-PKB depended on the relative, steady-state levels of both the kinases and phosphatases. This observation is shown in electrophoretic traces from cells loaded with F-PKB-C-SS-TAT (1 μM) (FIG. 6). A single asterisk denotes the migration time of F-PKB, and a double asterisk denotes the migration time of phosphorylated F-PKB from cells on the day of the experiment.
CACE has been previously described (Sims, Meredith et al. 1998; Meredith, Sims et al. 2000; Li, Wu et al. 2001). Briefly, cells were placed on an inverted fluorescence microscope stage (Diaphot 300, Nikon, Japan) and maintained at 37° C. with an objective heater (Bioptechs; Butler, Pa.) prior to lysis unless stated otherwise. The cells were continually washed with ECB maintained at 37° C. (unless otherwise indicated) with a flow rate of 1 ml/min and a total chamber volume of 0.5 ml. The inlet of a capillary (30 μm I.D., 360 μm O.D., 75 cm long) was positioned 10 μm above the cell. The inverted microscope was coupled to a pulsed Nd:YAG laser and a CE system (Sims, 1998). The CACE-based assay was performed as previously described (U, 2001; Meredith, 2000). Cells were always maintained in ECB when analyzed by the CACE.
CE was performed as described (Sims, Meredith et al. 1998), with the following modifications. The inner walls of the capillaries (30 μm I.D., 360 μm O.D.) were coated with poly(acrylate) (Wang, Hu et al. 2003). The outlet of the capillary was held at a negative potential of 18-21 kV, and the inlet reservoir was held at ground potential. Under these conditions, the current through the capillary was typically ˜36 μA. Solutions of standards were loaded into the capillary by gravitational fluid flow. The loaded volume was calculated from Poiseulle's equation and from contributions by spontaneous fluid displacement and diffusion (Weinberger, 2000; Fishman, 1994; Crank, 1989). To estimate the number of moles of peptide in an unknown solution or within a cell, the peak area from the electrophoretic trace of the solution or the cell was compared to that of a standard of known concentration separated by electrophoresis on the same day. A 1 pL cell volume and 100% peptide recovery was assumed in calculating intracellular peptide concentration (Meredith, Sims et al. 2000; Sims, Meredith et al. 1998). Analytes were detected by laser-induced fluorescence (Sims, Meredith et al. 1998).
Cells were incubated at room temperature for 5 minutes in 1% bovine serum albumin (BSA) in ECB, washed in ECB, and then incubated for 5 minutes at room temperature with a substrate conjugated to TAT(49-57). The cells were then washed with 1% BSA in ECB. Cells loaded with the disulfide conjugate were placed in supplement DMEM (10% FCS, 4 mM L-glutamine, 100 U/mL penicillin and 100 μg/mL streptomycin) and incubated at 37° C. in 5% CO2 for 20 minutes. Cells loaded with the photolabile conjugate were placed in supplemented DMEM and incubated at 37° C. in 5% CO2 for 10 minutes (unless stated otherwise) and were then illuminated with a UV light source for 10 seconds (a radiant energy/unit area of 2 kJ/m^2). The supplemented DMEM was exchanged and the cells were incubated another 10 minutes at 37° C. in 5% CO2. Just prior to analysis the cells were washed into ECB.

RBL cells = experiment: CACE single-cell analysis: loading and release of cargo; type: cell-based, rat; details: 750 nM extracellular
PKB [3] = molecular target: T2, PKB; experiment: CACE: intracellular phosphorylation of PKB substrate in HT1080/PTEN cells; type: cell-based; details: 1 μM extracellular
Method: Previous investigators developed cleavable PTD-cargo conjugates by engineering a disulfide linkage between the two domains (Stein, Weiss et al. 1999; Hallbrink, Floren et al. 2001). […] TAT(49-57)(SEQ ID NO:2) was conjugated via a disulfide bond to cysteines added to substrate peptides for CamKII (F-CamKII-C; SEQ ID NO:13) or PKB (F-PKB-C; SEQ ID NO:14), denoted F-CamKII-C-SS-TAT (SEQ ID NO:15) and F-PKB-C-SS-TAT (SEQ ID NO:16), respectively. The TAT(49-57)-Conjugated substrates were incubated with cells (HT1080 or HT1080/PTEN cells) and the contents of the cells were analyzed by the CACE. […]
as §1, with “otherwise.” for “otherwise. The cells were continually washed with ECB maintained at 37° C. (unless otherwise indicated) with a flow rate of 1 ml/min and a total chamber volume of 0.5 ml.”
as §2

recombinant CamKII = molecular target: T3, recombinant CamKII (Rattus norvegicus, UniProt P11275); experiment: In vitro kinase assay, 32P phosphate incorporation; type: biochemical; details: peptides 5-60 μM, 30° C., 30 minutes
T3 construct: purchased Calbiochem (San Diego, Calif.) / EMD Biosciences (San Diego, Calif.)
Method: In addition to assessing the electrophoretic behavior of F-CamKII-TAT, the ability of this conjugated sequence to act as an efficient substrate for the CamKII enzyme was characterized. The amount of phosphate incorporated into the substrate peptide alone and into F-CamKII-TAT by CamKII was measured in vitro. In the range of measured peptide concentrations, 90% less phosphate was incorporated by the CamKII enzyme into F-CamKII-TAT compared to the peptide lacking the TAT(49-57) sequence. The kinetic properties of CamKII enzyme for the CamKII peptide substrate were degraded when the peptide was conjugated to TAT(49-57).
Peptides (5-60 μM) were phosphorylated in vitro by 100 units of recombinant CamKII (EMD Biosciences; San Diego, Calif.) in 20 mM Tris-HCl, 10 mM MgCl2, 0.5 mM dithiothreitol (DTT), and 0.1 mM Ethylenediaminetetraacetic acid-(EDTA, pH 7.5) with […], 2 mM CaCl2 and […] [[…]-^32P]-ATP. The final specific activity of the [[…]-^32P]-ATP was 100 cpm/pmole; the total reaction volume was 25 μL. The mixture was incubated at 30° C. for 30 minutes. The reaction was stopped by adding 45 μL ice-cold 10% (v/v) trichloroacetic acid, mixed with a vortex, centrifuged, and blotted onto P81 phosphocellulose paper. Phosphate incorporation was quantified with a liquid scintillation counter (LS 3801; Beckman Instruments; Irvine, Calif.)

[4] = system: F-CamKII-TAT (fluorescein-labeled CamKII substrate peptide conjugated to TAT(49-57) through a peptide bond)
Jurkat cells = experiment: Michaelis-Menten kinetics of cellular uptake; type: cell-based, human; details: 4° C. (on ice), Lineweaver-Burk plots, incubation 30-240 seconds
Method: When cellular uptake of polymers of D- and L-arginine were analyzed by Michaelis-Menten kinetics (see Example 6), the rate of uptake by Jurkat cells was so efficient that precise Km values could only be obtained when the assays were carried out at 4° C. (on ice). Both the maximal rate of transport (Vmax) and the apparent affinity of the peptides for the putative receptor of the Michaelis constant (Km) were derived from Lineweaver-Burk plots of the observed fluorescence of Jurkat cells after incubation with varying concentrations of nonamers of D- and L-arginine for 30, 60, 120, and 240 seconds.

cells = experiment: Confocal microscopy of conjugate uptake; type: cell-based; details: same concentration for all conjugates
From the text: The ability of the D- and L-arginine polymers to enhance trans-membrane transport was confirmed by confocal microscopy (see FIGS. 6A-F and Example 4).

T2 sequence (P31749 whole entry): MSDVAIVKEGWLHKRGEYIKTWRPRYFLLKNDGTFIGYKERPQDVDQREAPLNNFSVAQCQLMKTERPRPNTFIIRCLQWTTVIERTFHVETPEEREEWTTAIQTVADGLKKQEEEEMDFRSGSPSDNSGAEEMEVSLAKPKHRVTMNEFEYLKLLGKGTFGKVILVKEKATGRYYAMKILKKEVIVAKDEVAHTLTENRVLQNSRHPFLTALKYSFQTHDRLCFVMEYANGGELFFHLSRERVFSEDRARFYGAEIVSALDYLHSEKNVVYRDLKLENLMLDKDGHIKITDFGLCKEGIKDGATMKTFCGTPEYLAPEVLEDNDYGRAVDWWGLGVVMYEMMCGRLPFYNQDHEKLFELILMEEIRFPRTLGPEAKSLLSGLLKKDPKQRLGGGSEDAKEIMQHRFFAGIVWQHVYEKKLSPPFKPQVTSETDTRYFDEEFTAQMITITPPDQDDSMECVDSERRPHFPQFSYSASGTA
T1 sequence (P47196 whole entry): as the sequence (P31749 whole entry) above, with S2N, D46E, A50S, K112R, E117T, S137A, K389T, G410N, H415D counted along it

Substance: Gly Arg Pro Arg Ala Ala Thr Phe Ala Glu Gly Cys Arg Lys Lys Arg Arg Gln Arg Arg Arg (Fluorescein-GRPRAATFAEGCRKKRRQRRR-NH2; not fully specified; printed as Gly Arg Pro Arg Ala Ala Thr Phe Ala Glu Gly Cys Arg Lys Lys Arg Arg Gln Arg Arg Arg; also: disulfide linkage between the PKB-Cys part and the TAT part (partner not shown)) [F-PKB-C-SS-TAT, F-PKB-C conjugated to TAT(49-57) via a disulfide bond]
- average amount of detected F-PKB-C (HT1080 cells; 215 nM extracellular): 2.5e-19 ± 3e-20 mol
- cytosolic concentration of free F-PKB-C (HT1080 cells; 215 nM extracellular): ~250 nM
- detectable F-PKB-C per cell (HT1080 cells; 1 μM extracellular): 7e-19 ± 3e-20 mol
- cytosolic concentration of free F-PKB-C (HT1080 cells; 1 μM extracellular, 1 pL cell volume assumed): ~700 nM
- F-PKB-C phosphorylated (PKB [1]; PIP3-histone 15 μM 10 min, n=4): 39%±14%
- F-PKB-C phosphorylation (PKB [1]; cells not exposed to PIP3-histone): no phosphorylation
- peptide present as phosphorylated F-PKB-C (PKB [2]): 75±8%
- detectable F-PKB-C per cell (RBL cells): 1.4e-20 ± 1e-21 mol
- intracellular concentration (RBL cells): ~14 nM
- peak of phosphorylated F-PKB-C (PKB [3]): no peak was present

Substance: Lys Lys Ala Leu His Arg Gln Glu Thr Val Asp Ala Leu Arg Lys Lys Arg Arg Gln Arg Arg Arg (KKALHRQETVDALRKKRRQRRR-NH2; not fully specified (N-terminus); printed as Lys Lys Ala Leu His Arg Gln Glu Thr Val Asp Ala Leu Arg Lys Lys Arg Arg Gln Arg Arg Arg; also: fluorescein label, position not given here) [F-CamKII-TAT, F-CamKII conjugated to TAT(49-57) through a peptide bond]
- less phosphate incorporated by CamKII compared to the peptide lacking the TAT(49-57) sequence (recombinant CamKII): 90%

Substance: Recombinant calcium-calmodulin activated kinase II (CamKII)
- phosphate incorporated into the peptide by CamKII in vitro (32P-ATP kinase assay), compared to the substrate peptide lacking TAT(49-57) [4]: 90% less phosphate was incorporated by the CamKII enzyme into F-CamKII-TAT compared to the peptide lacking the TAT(49-57) sequence

Substance: RKKRRQRRR [TAT(49-57), basic region of HIV TAT protein, residues 49-57]
- Km (Jurkat cells): 722 µM
- Vmax (Jurkat cells): 0.38 µM/s
- fluorescence of cytosol by confocal microscopy (cells): only weak staining
